In patent publication US20090092581A1 one finds % Neutralization of Luciferase Induction by anti-Type I IFN Receptor Antibody (25 µg/mL), Luciferase Induction Activity (U/mL) and ELISA estimate of IFN-α protein level in tissue culture supernatant data, which are given here for 13 molecules.

Several values for one entry are separate records, joined by “and”; a condition that tells them apart may be missing. Equal entries are not always repeated.

The target of assay [1] is T1, Type I IFN receptor on iLite human IFN-α gene-reporter cells (human) (UniProt P17181).
T1 sequence (looked up) 1: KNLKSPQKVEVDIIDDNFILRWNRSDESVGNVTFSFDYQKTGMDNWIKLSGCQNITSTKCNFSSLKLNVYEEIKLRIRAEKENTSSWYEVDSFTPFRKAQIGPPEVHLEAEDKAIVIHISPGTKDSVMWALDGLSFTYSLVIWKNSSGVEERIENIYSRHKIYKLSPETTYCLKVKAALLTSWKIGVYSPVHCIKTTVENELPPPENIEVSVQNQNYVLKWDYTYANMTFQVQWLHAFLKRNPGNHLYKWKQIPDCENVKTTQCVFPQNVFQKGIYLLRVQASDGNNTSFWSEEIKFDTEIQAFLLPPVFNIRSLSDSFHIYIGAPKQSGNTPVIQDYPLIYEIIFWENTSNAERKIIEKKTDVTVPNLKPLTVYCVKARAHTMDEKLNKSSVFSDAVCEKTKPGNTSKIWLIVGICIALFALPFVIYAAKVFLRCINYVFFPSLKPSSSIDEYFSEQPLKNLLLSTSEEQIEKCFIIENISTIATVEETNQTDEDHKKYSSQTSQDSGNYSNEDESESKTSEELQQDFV
T1 sequence (looked up) 2: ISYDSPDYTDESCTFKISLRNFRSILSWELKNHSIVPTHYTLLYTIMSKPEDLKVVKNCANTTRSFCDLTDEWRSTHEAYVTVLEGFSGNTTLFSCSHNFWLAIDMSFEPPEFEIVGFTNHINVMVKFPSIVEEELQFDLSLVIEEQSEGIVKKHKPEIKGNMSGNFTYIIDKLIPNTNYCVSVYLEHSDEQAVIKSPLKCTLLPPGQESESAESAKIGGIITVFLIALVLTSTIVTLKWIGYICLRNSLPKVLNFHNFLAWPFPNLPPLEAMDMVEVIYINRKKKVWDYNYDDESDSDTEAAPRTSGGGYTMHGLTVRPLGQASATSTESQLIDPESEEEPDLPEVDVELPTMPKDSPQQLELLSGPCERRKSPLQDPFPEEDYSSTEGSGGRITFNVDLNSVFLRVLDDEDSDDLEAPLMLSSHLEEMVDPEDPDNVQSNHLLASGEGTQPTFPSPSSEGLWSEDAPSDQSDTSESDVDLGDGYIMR
As to the kind of experiment: cell-based or functional assay.

Assay [2] concerns the target Cynomolgus IFN-α protein SEQ ID 56, expressed in Vero tissue culture supernatant (Cynomolgus (Macaca fascicularis)). As to the kind of experiment: ELISA kit PBL #41105 on Vero supernatant; read against human IFN-α2a standard curve; unit not given.
For assay [3], the target named is Cynomolgus IFN-α protein SEQ ID 42, expressed in Vero tissue culture supernatant (Cynomolgus (Macaca fascicularis)). Described as above.
The target of assay [4] is Cynomolgus IFN-α protein SEQ ID 66, expressed in Vero tissue culture supernatant (Cynomolgus (Macaca fascicularis)). The description is as above.
Assay [5] addresses Cynomolgus IFN-α protein SEQ ID 62, expressed in Vero tissue culture supernatant (Cynomolgus (Macaca fascicularis)). Described as above.
For assay [6], the target named is Cynomolgus IFN-α protein SEQ ID 58, expressed in Vero tissue culture supernatant (Cynomolgus (Macaca fascicularis)). The description is as above.
Assay [7] deals with Cynomolgus IFN-α protein SEQ ID 46, expressed in Vero tissue culture supernatant (Cynomolgus (Macaca fascicularis)). The assay is described as above.
The target in assay [8] is Cynomolgus IFN-α protein SEQ ID 60, expressed in Vero tissue culture supernatant (Cynomolgus (Macaca fascicularis)). Described as above.
For assay [9], the target named is Cynomolgus IFN-α protein SEQ ID 50, expressed in Vero tissue culture supernatant (Cynomolgus (Macaca fascicularis)). Described as above.
In assay [10] the target is Cynomolgus IFN-α protein SEQ ID 54, expressed in Vero tissue culture supernatant (Cynomolgus (Macaca fascicularis)). Kind of assay: ELISA kit PBL #41105 on Vero supernatant; read against human IFN-α2a standard curve; unit not given; second of two values.
Assay [11] shares this target. As to the kind of experiment: ELISA kit PBL #41105 on Vero supernatant; read against human IFN-α2a standard curve; unit not given; first of two values.

Consider “Cynomolgus IFN-α protein SEQ ID 62, expressed in Vero tissue culture supernatant (from UniProt P01571 24-189) (ligand)”, for which, in [1], the % Neutralization of Luciferase Induction by anti-Type I IFN Receptor Antibody (25 µg/mL) is above 99% and the Luciferase Induction Activity (U/mL) stood at 16000 U/mL.

“Cynomolgus IFN-α protein SEQ ID 46, expressed in Vero tissue culture supernatant (from UniProt P01571 24-189) (ligand)”: in assay [1], the % Neutralization of Luciferase Induction by anti-Type I IFN Receptor Antibody (25 µg/mL) was above 99% and the Luciferase Induction Activity (U/mL) is 2700 U/mL.

With “Cynomolgus IFN-α protein SEQ ID 58, expressed in Vero tissue culture supernatant (from UniProt P01570 24-189) (ligand)”, in assay [1], the % Neutralization of Luciferase Induction by anti-Type I IFN Receptor Antibody (25 µg/mL) is above 99% and the Luciferase Induction Activity (U/mL) came to 8950 U/mL.

In assay [1], “Cynomolgus IFN-α protein SEQ ID 54, expressed in Vero tissue culture supernatant (from UniProt P01568 24-188) (ligand)” came in with a % Neutralization of Luciferase Induction by anti-Type I IFN Receptor Antibody (25 µg/mL) above 99% and a Luciferase Induction Activity (U/mL) of 11600 U/mL.

In assay [1], “Cynomolgus IFN-α protein SEQ ID 42, expressed in Vero tissue culture supernatant (from UniProt P01571 24-189) (ligand)” yielded a % Neutralization of Luciferase Induction by anti-Type I IFN Receptor Antibody (25 µg/mL) above 99% and a Luciferase Induction Activity (U/mL) of 36700 U/mL.

As for “Cynomolgus IFN-α protein SEQ ID 60, expressed in Vero tissue culture supernatant (from UniProt P32881 24-189) (ligand)”, in assay [1], the % Neutralization of Luciferase Induction by anti-Type I IFN Receptor Antibody (25 µg/mL) is above 99% and the Luciferase Induction Activity (U/mL) was determined as 48900 U/mL.

Turning to “Human IFN-α Multi-Subtype ELISA kit, PBL # 41105 (kit antibodies) (antibody)”, the ELISA estimate of IFN-α protein level in tissue culture supernatant in assay [2] is 289 and 414; in [3] it was 287 and 566; in assay [4], > 651 and 1500; in assay [5], 75 and 95; in [6], above 1120; in [7] it was 187 and 123. The ELISA estimate of IFN-α protein level in tissue culture supernatant in assay [8] is > 651 and 1000; in assay [9], above 1120; in assay [10], 8; in [11], 8.

On to “Cynomolgus IFN-α protein SEQ ID 66, expressed in Vero tissue culture supernatant (from UniProt P01563 24-188) (ligand)”, for which, in assay [1], the % Neutralization of Luciferase Induction by anti-Type I IFN Receptor Antibody (25 µg/mL) is above 99% and the Luciferase Induction Activity (U/mL) was 6630 U/mL.

B1: Cynomolgus IFN-α protein SEQ ID 50, expressed in Vero tissue culture supernatant (ligand)
chain: CNPSQTHNMNNRRTLMLMAQMRRISPFSCLKDRNDFEFPQEEFDGNQFQNTQAISVLHEMMQQTFNLFSTKDSSAAWDETLLDKFYIELFQQLNDLEACVIQEAGVEETPLMNEDSILAVRKYFQRITLYLMEKKYSPCAWEVVRAEIMRSLSFSTNLQKRLRRKD
On to B1, for which, in assay [1], the % Neutralization of Luciferase Induction by anti-Type I IFN Receptor Antibody (25 µg/mL) is above 99% and the Luciferase Induction Activity (U/mL) was 8040 U/mL.

B2: Cynomolgus IFN-α protein SEQ ID 56, expressed in Vero tissue culture supernatant (ligand)
chain: CDLPQTHSLGHRRALILLAQMGRISPFSCLKDRHDFGFPQEEFDGNQFQKAQAMSVLHEMIQQTFNLFSTKDSSAAWEQNLLEKFSAELYQQLNDLKACVIAEPGMEDTPLMNEDSILAVKKYFQRITLYLTEKKYSPCAWEVVRAEIMRSLSFSTNLQKRLRRKD
B2: in assay [1], the % Neutralization of Luciferase Induction by anti-Type I IFN Receptor Antibody (25 µg/mL) was above 99% and the Luciferase Induction Activity (U/mL) was 822 U/mL.

B3: Cynomolgus IFN-α protein SEQ ID 44, expressed in Vero tissue culture supernatant (ligand)
chain: CDLPQTHSLGHRRALILLAQMGRISPFSCLKDRRDFAFPQEEFDGNQFQKAQAMSVLHEMIQQTFNLFSTKDSSAAWEQNLLEKFSAELYQQLNDLKACVIAEPGMEDTPLMNEDSILAVKKYFQRITLYLTEKKYSPCAWEVVRTEIMRSLSFSTNLQKRLRRKD
In the case of B3, in [1], the % Neutralization of Luciferase Induction by anti-Type I IFN Receptor Antibody (25 µg/mL) is above 99% and the Luciferase Induction Activity (U/mL) is 2830 U/mL.

B4: Cynomolgus IFN-α protein SEQ ID 48, expressed in Vero tissue culture supernatant (ligand)
chain: MALSFSLLMAVVVLSYKSICSLGCDPPRTHSLGHRRALILLAQMERISPFSCLKDRCDFAFPQEEFDGNQFQKAQAMSVLHEMIQQTFNLFSTKDSSAAWEQNLLEKFSAELYQQLNDLKACVIAEPGMEETLLMNEDSILAVKKYFQRITLYLTEKKYSPCAWEVVRAEIMRSLSFSTNLQKRLRRKD
In assay [1], B4 gave a % Neutralization of Luciferase Induction by anti-Type I IFN Receptor Antibody (25 µg/mL) above 99% and a Luciferase Induction Activity (U/mL) of 2170 U/mL.

B5: Cynomolgus IFN-α protein SEQ ID 52, expressed in Vero tissue culture supernatant (ligand)
chain: MALSFSLLMAVVVLSYKSICSLGCDLPQTHSLGHRRALILLAQMQRISLPSCLKDRHDFAFLQEFDGNQFQKAQAMSVLHEMIQQTFNLLSTKDSSAAWDETLLDKFYIELFQQLNDLEACVIQEAGVEETPLMNEDSILAVRKYFQRITLYLTEKKYSPCAWEVVRAEIMRSLSFSTNLQKRLGRKD
As to B5, in [1], the % Neutralization of Luciferase Induction by anti-Type I IFN Receptor Antibody (25 µg/mL) was above 99% and the Luciferase Induction Activity (U/mL) came out at 515 U/mL.
